Data: the supplement of paper PMC10065799, “High-throughput profiling of sequence recognition by tyrosine kinases and SH2 domains using bacterial peptide display” (eLife, 2023)

How the values were obtained:
[1] = test system: AncSZ; experiment: phosphorylation enrichment, bacterial display (enrichment ratio); higher = better substrate or ligand; peptides without Tyr show the background
[2] = test system: c-Src; experiment: as above
[3] = target: MERTK (UniProt Q12866); experiment: as above
[4] = target: EPHB2 (UniProt P29323); experiment: as above
[5] = target: Hck (UniProt P08631); experiment: as above
[6] = target: FGFR3 (UniProt P22607); experiment: as above
[7] = target: Fes (UniProt P07332); experiment: as above
[8] = test system: c-Abl (mouse); experiment: as above
[9] = target: Jak2 (UniProt O60674); experiment: as above
[10] = target: Fyn (UniProt P06241); experiment: as above
[11] = target: FGFR1 (UniProt P11362); experiment: as above
[12] = test system: Fer (mouse); experiment: as above
[13] = target: EPHB1 (UniProt P54762); experiment: as above
[14] = target: SHP2-C SH2; experiment: SH2 binding enrichment of the phosphorylated peptide, bacterial display (enrichment ratio); higher = better substrate or ligand; peptides without Tyr show the background
[15] = target: c-Src SH2; experiment: as above
[16] = target: Grb2 SH2 (UniProt P62993); experiment: as above
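For SH2 binding enrichment of the phosphorylated peptide, bacterial display in this document: peptide library displayed on the E. coli surface as eCPX fusions, selected cells deep-sequenced, score is each peptide's frequency after selection divided by its frequency in the input.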
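For phosphorylation enrichment, bacterial display in this document: 11-residue human phosphosite peptides and single-mutation variants displayed on the E. coli surface, counted by deep sequencing, each peptide's frequency after selection divided by its frequency in the unselected input library; frequency after pTyr selection over input frequency; kinase dosed for 20-30% of maximal phosphorylation in three min.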

Sequence of MERTK (Q12866 whole entry, looked up): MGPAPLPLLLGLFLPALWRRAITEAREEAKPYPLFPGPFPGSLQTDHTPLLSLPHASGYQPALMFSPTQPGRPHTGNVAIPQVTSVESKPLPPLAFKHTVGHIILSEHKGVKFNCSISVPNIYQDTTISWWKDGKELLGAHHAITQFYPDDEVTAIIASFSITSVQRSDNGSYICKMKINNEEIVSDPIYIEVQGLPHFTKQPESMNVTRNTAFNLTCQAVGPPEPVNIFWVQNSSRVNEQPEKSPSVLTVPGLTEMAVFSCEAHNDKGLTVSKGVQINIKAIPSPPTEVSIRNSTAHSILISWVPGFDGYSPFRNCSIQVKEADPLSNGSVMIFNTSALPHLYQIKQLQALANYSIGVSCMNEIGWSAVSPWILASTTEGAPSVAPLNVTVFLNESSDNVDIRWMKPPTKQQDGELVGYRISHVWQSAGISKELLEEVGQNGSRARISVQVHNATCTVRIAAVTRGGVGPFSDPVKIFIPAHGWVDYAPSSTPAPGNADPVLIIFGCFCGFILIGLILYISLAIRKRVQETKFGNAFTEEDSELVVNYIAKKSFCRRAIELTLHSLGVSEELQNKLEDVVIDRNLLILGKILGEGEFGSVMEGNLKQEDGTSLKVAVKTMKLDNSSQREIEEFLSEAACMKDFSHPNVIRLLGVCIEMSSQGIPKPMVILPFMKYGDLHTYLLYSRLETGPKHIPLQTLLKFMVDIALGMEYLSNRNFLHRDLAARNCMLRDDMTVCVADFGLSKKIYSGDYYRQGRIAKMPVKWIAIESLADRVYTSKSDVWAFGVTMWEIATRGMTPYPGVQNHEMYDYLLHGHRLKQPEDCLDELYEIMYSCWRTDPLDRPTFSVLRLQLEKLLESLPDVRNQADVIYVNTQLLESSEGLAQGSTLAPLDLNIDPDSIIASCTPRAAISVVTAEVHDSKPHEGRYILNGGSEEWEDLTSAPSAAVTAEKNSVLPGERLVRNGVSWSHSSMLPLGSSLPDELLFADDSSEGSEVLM
Sequence of Grb2 SH2 (P62993 whole entry, looked up, the tested form may be a part): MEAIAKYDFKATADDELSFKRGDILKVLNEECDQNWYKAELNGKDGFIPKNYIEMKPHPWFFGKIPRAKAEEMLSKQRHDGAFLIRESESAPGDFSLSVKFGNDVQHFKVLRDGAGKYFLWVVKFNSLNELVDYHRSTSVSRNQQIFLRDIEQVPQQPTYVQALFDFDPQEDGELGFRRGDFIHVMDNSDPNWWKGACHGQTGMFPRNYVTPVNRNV
Sequence of Jak2 (O60674 whole entry, looked up): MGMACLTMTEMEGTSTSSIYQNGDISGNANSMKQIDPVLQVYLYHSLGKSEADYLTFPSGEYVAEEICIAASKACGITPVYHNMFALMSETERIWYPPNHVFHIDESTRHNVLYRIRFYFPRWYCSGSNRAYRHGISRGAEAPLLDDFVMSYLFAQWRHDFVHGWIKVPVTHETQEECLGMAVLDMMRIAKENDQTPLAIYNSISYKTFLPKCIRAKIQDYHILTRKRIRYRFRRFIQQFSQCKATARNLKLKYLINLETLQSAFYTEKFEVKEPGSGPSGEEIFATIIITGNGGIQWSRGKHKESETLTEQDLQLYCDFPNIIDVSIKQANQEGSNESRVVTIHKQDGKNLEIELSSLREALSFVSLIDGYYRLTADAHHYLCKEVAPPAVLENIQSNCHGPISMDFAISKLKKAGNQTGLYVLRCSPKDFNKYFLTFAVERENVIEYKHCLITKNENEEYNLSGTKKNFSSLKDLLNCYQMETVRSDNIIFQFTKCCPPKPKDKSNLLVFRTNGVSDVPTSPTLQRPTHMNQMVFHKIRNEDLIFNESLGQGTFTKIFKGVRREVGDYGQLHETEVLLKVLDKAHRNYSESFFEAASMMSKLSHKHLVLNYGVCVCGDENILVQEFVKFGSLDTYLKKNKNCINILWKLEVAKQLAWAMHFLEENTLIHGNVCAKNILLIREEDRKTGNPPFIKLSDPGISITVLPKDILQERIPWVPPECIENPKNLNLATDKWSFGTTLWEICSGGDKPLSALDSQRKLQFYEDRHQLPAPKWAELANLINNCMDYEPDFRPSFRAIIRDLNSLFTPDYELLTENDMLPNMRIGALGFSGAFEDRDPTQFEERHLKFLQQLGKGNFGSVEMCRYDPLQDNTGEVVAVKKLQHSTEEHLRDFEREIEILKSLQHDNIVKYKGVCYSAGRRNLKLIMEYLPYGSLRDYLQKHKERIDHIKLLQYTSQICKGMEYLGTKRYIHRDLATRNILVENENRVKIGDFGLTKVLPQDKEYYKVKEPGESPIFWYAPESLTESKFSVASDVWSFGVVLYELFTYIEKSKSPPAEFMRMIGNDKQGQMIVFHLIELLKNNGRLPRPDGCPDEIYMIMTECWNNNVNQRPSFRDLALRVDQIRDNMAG
Sequence of FGFR1 (P11362 whole entry, looked up): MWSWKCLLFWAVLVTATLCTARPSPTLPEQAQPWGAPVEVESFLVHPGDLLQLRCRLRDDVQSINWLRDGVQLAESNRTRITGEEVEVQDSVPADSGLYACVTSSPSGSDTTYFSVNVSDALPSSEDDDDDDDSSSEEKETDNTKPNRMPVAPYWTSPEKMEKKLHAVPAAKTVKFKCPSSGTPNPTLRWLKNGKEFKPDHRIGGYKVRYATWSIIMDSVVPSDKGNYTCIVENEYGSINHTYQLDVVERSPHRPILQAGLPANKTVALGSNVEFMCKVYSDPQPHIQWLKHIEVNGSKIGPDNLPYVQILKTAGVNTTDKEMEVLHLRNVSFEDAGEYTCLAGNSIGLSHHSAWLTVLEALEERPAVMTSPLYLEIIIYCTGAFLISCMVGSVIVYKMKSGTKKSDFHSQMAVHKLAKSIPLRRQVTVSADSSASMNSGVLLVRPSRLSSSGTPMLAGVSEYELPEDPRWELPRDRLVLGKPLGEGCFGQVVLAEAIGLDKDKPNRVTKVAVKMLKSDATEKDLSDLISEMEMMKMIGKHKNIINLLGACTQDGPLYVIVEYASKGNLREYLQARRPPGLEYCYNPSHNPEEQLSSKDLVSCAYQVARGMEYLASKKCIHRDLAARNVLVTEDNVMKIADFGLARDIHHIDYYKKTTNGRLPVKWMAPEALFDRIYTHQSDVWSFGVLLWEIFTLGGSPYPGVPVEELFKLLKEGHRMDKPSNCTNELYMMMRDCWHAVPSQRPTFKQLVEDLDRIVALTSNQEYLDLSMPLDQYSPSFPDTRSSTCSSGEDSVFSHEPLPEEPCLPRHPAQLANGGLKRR
Sequence of Fyn (P06241 whole entry, looked up): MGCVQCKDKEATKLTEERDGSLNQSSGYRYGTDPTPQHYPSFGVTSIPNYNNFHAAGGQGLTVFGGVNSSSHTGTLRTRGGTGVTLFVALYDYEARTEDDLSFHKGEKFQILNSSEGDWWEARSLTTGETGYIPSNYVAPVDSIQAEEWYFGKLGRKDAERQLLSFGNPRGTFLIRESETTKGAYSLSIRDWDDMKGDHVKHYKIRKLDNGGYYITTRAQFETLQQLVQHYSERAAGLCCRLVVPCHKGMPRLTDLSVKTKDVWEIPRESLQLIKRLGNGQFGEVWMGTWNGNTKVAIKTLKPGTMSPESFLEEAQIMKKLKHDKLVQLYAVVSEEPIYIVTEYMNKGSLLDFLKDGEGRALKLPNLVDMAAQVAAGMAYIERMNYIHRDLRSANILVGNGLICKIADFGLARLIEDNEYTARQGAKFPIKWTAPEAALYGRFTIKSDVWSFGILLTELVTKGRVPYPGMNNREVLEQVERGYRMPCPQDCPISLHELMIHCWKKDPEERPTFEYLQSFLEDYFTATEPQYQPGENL
Sequence of Fes (P07332 whole entry, looked up): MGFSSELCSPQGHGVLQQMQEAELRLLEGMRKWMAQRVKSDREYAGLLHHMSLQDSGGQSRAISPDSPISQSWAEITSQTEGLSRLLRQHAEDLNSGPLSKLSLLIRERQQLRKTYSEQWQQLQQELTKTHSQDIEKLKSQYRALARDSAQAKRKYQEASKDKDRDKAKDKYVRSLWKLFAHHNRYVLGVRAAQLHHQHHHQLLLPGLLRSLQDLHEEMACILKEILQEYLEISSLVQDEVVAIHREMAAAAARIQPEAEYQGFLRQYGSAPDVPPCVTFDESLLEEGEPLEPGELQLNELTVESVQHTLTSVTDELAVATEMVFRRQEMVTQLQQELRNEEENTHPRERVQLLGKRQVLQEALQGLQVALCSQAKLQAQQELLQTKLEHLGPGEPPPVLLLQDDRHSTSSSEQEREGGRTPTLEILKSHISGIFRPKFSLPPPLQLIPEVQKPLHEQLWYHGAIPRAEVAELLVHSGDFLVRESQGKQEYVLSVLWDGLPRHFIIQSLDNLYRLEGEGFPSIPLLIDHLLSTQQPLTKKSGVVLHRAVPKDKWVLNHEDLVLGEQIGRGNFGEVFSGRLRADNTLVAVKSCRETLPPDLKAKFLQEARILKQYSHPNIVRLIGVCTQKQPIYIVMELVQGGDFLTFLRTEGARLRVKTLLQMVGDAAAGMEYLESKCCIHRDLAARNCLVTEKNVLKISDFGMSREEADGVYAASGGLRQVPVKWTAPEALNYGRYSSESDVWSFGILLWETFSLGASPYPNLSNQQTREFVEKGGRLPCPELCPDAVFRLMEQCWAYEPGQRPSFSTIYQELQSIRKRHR
Sequence of Hck (P08631 whole entry, looked up): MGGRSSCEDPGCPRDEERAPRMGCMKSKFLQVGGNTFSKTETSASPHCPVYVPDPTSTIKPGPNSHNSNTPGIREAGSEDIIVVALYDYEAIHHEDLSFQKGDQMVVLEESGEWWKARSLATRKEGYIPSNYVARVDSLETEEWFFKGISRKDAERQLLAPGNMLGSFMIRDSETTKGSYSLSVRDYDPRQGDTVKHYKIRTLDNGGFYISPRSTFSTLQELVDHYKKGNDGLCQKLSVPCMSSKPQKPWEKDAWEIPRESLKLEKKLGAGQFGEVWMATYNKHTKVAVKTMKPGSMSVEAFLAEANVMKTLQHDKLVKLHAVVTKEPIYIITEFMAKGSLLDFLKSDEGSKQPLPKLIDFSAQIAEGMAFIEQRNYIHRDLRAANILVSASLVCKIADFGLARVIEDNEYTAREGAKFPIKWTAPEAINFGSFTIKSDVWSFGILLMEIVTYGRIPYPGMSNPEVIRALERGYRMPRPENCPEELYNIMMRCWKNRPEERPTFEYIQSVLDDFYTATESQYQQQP

Sequence	phosphorylation enrichment [1]	phosphorylation enrichment [2]	phosphorylation enrichment [3]	phosphorylation enrichment [4]	phosphorylation enrichment [5]	phosphorylation enrichment [6]	phosphorylation enrichment [7]	phosphorylation enrichment [8]	phosphorylation enrichment [9]	phosphorylation enrichment [10]	phosphorylation enrichment [11]	phosphorylation enrichment [12]	phosphorylation enrichment [13]	SH2 binding enrichment [14]	SH2 binding enrichment [15]	SH2 binding enrichment [16]
KKRRSYGNSSD [SELENOK_Y52]	0.554	0.525	0.51	0.394	0.511	0.395	0.582	0.479	0.475	0.448	0.383	0.417	0.472	0.525	0.376	0.601
KLFFHYDPKLC [INSR_Y457_N458D]	1.01	0.361	0.382	0.516	0.327	0.67	1.25	0.948	0.961	0.342	0.423	0.47	0.643	0.709	0.542	0.702
KLFIEYPTGSG [IRF2BPL_Y423]	0.636	0.402	0.374	0.565	0.431	0.486	0.775	0.521	0.653	0.444	0.412	0.301	0.478	1	0.505	0.82
KLIETYFSKNY [PLP1_Y50]	0.701	0.41	0.374	0.329	0.52	0.453	0.732	0.574	0.719	0.355	0.334	0.285	0.371	0.461	0.37	0.716
KLNNEYLELNY [MME_Y497]	1.08	0.679	0.449	1.01	0.627	3.27	0.892	0.635	0.861	0.633	4.67	0.417	0.925	0.783	0.553	0.931
KLPYPYDDPFS [GPX2_Y127]	1.09	0.546	0.515	0.532	0.589	0.745	1.06	0.705	0.954	0.534	0.507	0.434	0.458	0.544	3.58	0.97
KLQKFYRQNPD [EHHADH_Y683_YF]	0.499	0.409	0.452	0.348	0.443	0.416	0.498	0.581	0.393	0.418	0.343	0.387	0.545	0.647	0.418	0.719
KMATAYIRRMS [BCO1_Y264]	0.68	0.514	0.468	0.495	0.425	0.431	0.572	0.544	0.58	0.425	0.461	0.362	0.359	0.497	0.389	0.593
KMKGEYYRYLA [YWHAG_Y130_D129E]	0.981	1.07	0.957	0.717	1.09	3.14	0.961	1.34	1.68	0.607	4.78	0.409	0.639	1.16	1.25	1.65
KNGSNYVVKGN [KIT_Y823_D820G]	0.526	0.482	0.466	0.38	0.45	0.368	0.576	0.411	0.484	0.449	0.435	0.375	0.346	0.782	0.527	0.837
KPEKTYGLRNE [CEP43_Y267_K271N]	0.494	0.439	0.397	0.362	0.406	0.371	0.569	0.551	0.512	0.37	0.394	0.321	0.39	0.758	0.534	0.594
KPLMPCMRFSR [SMARCE1_Y73_Y73C_YF]	0.92	0.469	0.506	0.448	0.439	0.502	0.916	0.88	0.707	0.466	0.393	0.443	0.39	0.912	0.477	0.858
KPLMPSMRYSR [SMARCE1_Y73_Y73S]	0.823	0.498	0.467	0.445	0.462	0.467	0.756	0.49	0.555	0.383	0.405	0.377	0.328	0.499	0.441	0.717
KPMDTYYDSTR [DYNC2H1_Y2230]	0.874	0.7	0.498	0.675	1.13	0.76	0.774	0.678	0.545	0.543	0.998	0.447	0.632	0.66	0.898	0.903
KQLYAYKMLMA [TMC2_Y209]	0.629	0.383	0.368	0.445	0.458	0.496	0.72	0.57	0.669	0.39	0.515	0.384	0.62	1.4	0.842	1.32
KRFRIYHLAIS [BRCA2_Y3009_T3013I_YF]	0.899	0.448	0.484	0.524	0.494	0.625	0.942	1.38	0.86	0.55	0.644	0.48	0.612	1.43	1.56	1.81
KRGVSYILKLA [SERPINB1_Y84_A82V]	1.4	0.412	0.446	0.557	0.558	0.676	1.6	0.768	1.34	0.426	0.534	0.524	0.504	0.797	0.763	1.28

Sequence	phosphorylation enrichment [1]	phosphorylation enrichment [2]	phosphorylation enrichment [3]	phosphorylation enrichment [4]	phosphorylation enrichment [5]	phosphorylation enrichment [6]	phosphorylation enrichment [7]	phosphorylation enrichment [8]	phosphorylation enrichment [9]	phosphorylation enrichment [10]	phosphorylation enrichment [11]	phosphorylation enrichment [12]	phosphorylation enrichment [13]	SH2 binding enrichment [14]	SH2 binding enrichment [15]	SH2 binding enrichment [16]
KSEFAYEIFDK [MYOM2_Y1024_L1022F]	1.34	2.1	0.967	0.573	0.561	0.664	1.04	0.746	1.01	0.797	0.564	0.543	0.527	0.63	1.08	0.613
KSVITYSPTTG [ITGB3BP_Y32]	0.49	0.462	0.403	0.49	0.353	0.464	0.592	0.447	0.586	0.38	0.37	0.401	0.325	0.849	0.507	0.91
KVIDMYLMGCF [GABRB2_Y308_A304V]	1.28	0.593	0.429	0.55	0.608	0.842	1.38	0.964	1.24	0.535	0.619	0.638	0.636	0.917	0.363	0.795
KVITDYYVDMK [MPP4_Y566]	1.26	0.597	0.577	0.865	0.576	2.64	1.07	0.758	1.4	0.557	3.97	0.496	1.71	0.704	2.9	0.875
KVKPIYFHTRG [AR_Y916_Q920R]	0.853	0.477	0.456	0.498	0.527	0.614	0.892	0.633	0.885	0.448	0.598	0.416	0.452	2.07	1.84	2.2
KVPRHYDDPGK [FOXG1_Y246]	0.785	0.505	0.462	0.373	0.481	0.712	1.16	1.01	1.25	0.443	0.428	1.11	0.414	1.2	1.56	1.26
KWKQKYEESQS [MYH6_Y1462_E1457K]	0.671	0.38	0.431	0.52	0.531	0.693	0.887	0.73	0.85	0.481	0.431	0.405	0.508	1.09	1.04	1.35
KWLEQYTQAIE [LSP1_Y234_Q229K]	1.04	0.452	0.39	0.683	0.441	0.573	0.977	0.702	0.915	0.454	0.472	0.442	0.499	0.806	0.782	0.993
LAAAGYDVEKN [H1-3_Y72]	0.909	0.365	0.54	0.482	0.692	0.658	1.03	0.582	0.711	0.493	0.51	0.436	0.463	0.791	0.484	0.723
LAARYYNWVSF [FLT4_Y1231]	1.55	1	4.42	1.02	0.64	3.57	1.8	1.68	2.14	0.654	4.29	5.18	1.09	1.38	2.3	6.96
LALTVYADCLA [ABCA4_Y2063_G2059A]	1.42	0.62	0.517	0.938	0.73	1.05	1.48	1.09	1.53	0.699	0.665	0.781	1.08	0.508	0.572	0.624
LARDMDDKEFF [MET_Y1230_Y1230D_YF]	0.895	0.498	0.523	0.53	0.456	1.08	0.997	0.464	0.708	0.342	0.453	0.428	0.451	0.968	0.508	1.11
LARHMYDKEFF [MET_Y1230_D1228H_YF]	0.78	0.688	0.559	0.438	0.399	0.55	1.08	0.524	0.646	0.404	0.606	0.29	0.355	0.65	0.546	0.7
LARHMYDKEYY [MET_Y1230_D1228H]	1.17	0.73	0.597	0.811	0.825	0.813	0.933	0.687	0.883	0.638	0.799	0.671	0.693	1.43	1.15	1.25
LASSEYPVRRR [GALK1_Y236]	0.62	0.572	0.526	0.472	0.514	0.496	0.612	0.448	0.475	0.543	0.45	0.363	0.542	0.426	0.336	0.512
LCRYGYANTSE [SI_Y1233]	1.31	0.789	1.15	0.661	0.772	1.36	1.41	0.932	1.11	0.688	0.656	0.746	0.78	0.85	2.24	2
